Consider eight molecules from publication PMC7474069, “Cystathionine β-synthase is involved in cysteine biosynthesis and H2S generation in Toxoplasma gondii” (Scientific Reports, 2020).

Values joined by “and” are separate entries in the source; they are usually repeats but may differ in a detail not shown here. Identical values can stand only once.

Series [1] deals with T1, TgCBS (Toxoplasma gondii, UniProt A0A125YSJ9).
T1 construct: gene TGME49_259180; mainly dimer with some tetramer; no heme, PLP at Lys56
T1 sequence (A0A125YSJ9 1-514): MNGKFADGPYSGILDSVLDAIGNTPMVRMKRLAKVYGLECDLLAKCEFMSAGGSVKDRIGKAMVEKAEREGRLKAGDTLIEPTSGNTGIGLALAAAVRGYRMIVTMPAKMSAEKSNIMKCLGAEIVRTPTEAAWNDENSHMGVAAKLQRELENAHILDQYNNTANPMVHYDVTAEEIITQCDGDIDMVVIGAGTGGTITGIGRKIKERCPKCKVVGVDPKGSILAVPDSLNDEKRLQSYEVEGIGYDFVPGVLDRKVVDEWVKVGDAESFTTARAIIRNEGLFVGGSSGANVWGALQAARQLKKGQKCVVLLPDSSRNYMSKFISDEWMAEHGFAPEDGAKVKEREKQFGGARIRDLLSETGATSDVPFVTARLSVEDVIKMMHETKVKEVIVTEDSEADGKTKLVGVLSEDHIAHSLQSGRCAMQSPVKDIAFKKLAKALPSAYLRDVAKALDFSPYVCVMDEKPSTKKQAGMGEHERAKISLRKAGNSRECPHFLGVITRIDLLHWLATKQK
The experiment in a line: lead acetate H2S assay, substrate competition. Type of series: biochemical. The text has this: lead acetate H2S assay, substrate competition on TgCBS | The IC50 value, i.e. the concentration of L-Ser at which the H2S production

In series [2] the target is T1, TgCBS. The series is described as follows: intrinsic fluorescence titration of apo-enzyme. The series is classed as binding.
The target in series [3] is T1, TgCBS. The series is described as follows: lead acetate H2S assay, biphasic fit. The series is classed as biochemical. Particulars: substrate inhibition in beta-elimination; L-Cys alone; 50 mM Hepes pH 7.4; 37 °C; PLP 20 µM. The text has this:
(§1) lead acetate H2S assay, biphasic fit on TgCBS

Series [4] has as its target T1, TgCBS. The experiment in a line: CD spectroscopy (external aldimine formation). Type of series: binding. Particulars: 25 mM; 20 mM sodium phosphate pH 8.5; 25 °C; substrate analog.
Series [5] deals with T1, TgCBS. The series is described as follows: CD spectroscopy (aminoacrylate formation). Type of series: binding. Particulars: 3 mM; 20 mM sodium phosphate pH 8.5; 25 °C.
In a further series the test system is N[C@@H](CO)C(=O)O. The experiment in a line: purified protein. Particulars: CBS coupled-assay conditions (MBP buffer pH 9; 37 °C).
Series [6] has as its system N[C@@H](CCSC[C@H](N)C(=O)O)C(=O)O. The experiment in a line: purified protein. Particulars: CBS coupled-assay conditions (MBP buffer pH 9; 37 °C).
Substrate in series [7]: N[C@@H](CO)C(=O)O
The experiment in a line: purified protein. The series is classed as biochemical, Toxoplasma gondii. Particulars: co-substrate L-Hcys, MBP buffer pH 9, 37 °C, PLP 20 µM.

Substrate in series [8]: CC(=O)OC[C@H](N)C(=O)O
The experiment in a line: purified protein. The series is classed as biochemical, Toxoplasma gondii. To be noted: co-substrate L-Hcys, MBP buffer pH 9, 37 °C, PLP 20 µM.

Substrate in series [9]: N[C@@H](CCS)C(=O)O
The experiment in a line: purified protein. Type of series: biochemical, Toxoplasma gondii. To be noted: co-substrate L-Ser, MBP buffer pH 9, 37 °C, PLP 20 µM.

Substrate in series [10]: N[C@@H](CS)C(=O)O
The experiment in a line: lead acetate H2S assay, biphasic fit. The series is classed as biochemical, Toxoplasma gondii. Particulars: beta-elimination of L-Cys alone, site 1, 50 mM Hepes pH 7.4, 37 °C, PLP 20 µM.
Text: as §1

Series [11] deals with the molecule itself. The experiment in a line: SEC; Superdex 200 10/30 GL, TgCBS at 1 mg/mL, 20 mM sodium phosphate pH 8.5, 150 mM NaCl, 0.1 mM DTT; masses from a calibration curve of standard proteins.

In general, IC50 refers to the point on the concentration scale where inhibition reaches its midpoint. `N[C@@H](CO)C(=O)O` [L-Ser] yielded an IC50 at TgCBS [1] of 6.7 ± 1.3 mM.
In general, Kd refers to the concentration at which binding is half-saturated. The molecule `Cc1ncc(COP(=O)(O)O)c(C=O)c1O` [PLP] gave a Kd on TgCBS [2] of 0.00013 ± 1e-05 mM.
Molecule `N[C@@H](CS)C(=O)O` [L-Cys] came in with a TgCBS at TgCBS [3] of 36 ± 4 mM.
In the case of `C[C@H](N)C(=O)O` [L-Ala], on TgCBS [4], the “CD spectroscopy (external aldimine formation)” value is recorded as “Addition of the analog L-alanine (L-Ala) to TgCBS resulted in a shift”.
As for `NC(CSCC(N)C(=O)O)C(=O)O` (stereo not shown) [lanthionine], the “CD spectroscopy (aminoacrylate formation)” value at TgCBS [5] is listed as “Binding of lanthionine to the enzyme”.
In general, Km refers to the concentration of substrate that gives half-maximal velocity. Usually kcat stands for the number of substrate molecules converted per active site and unit of time at saturation. For “recombinant CBL (Corynebacterium diphtheriae NCTC 13129)”, in the series with N[C@@H](CO)C(=O)O, the Km was found to be 7500 ± 1400 µM and the catalytic constant (kcat) is 1.2 ± 0.2 s⁻¹. For the same molecule, in series [6], the Km was found to be 800 ± 100 µM and the kcat stood at 93 ± 2 s⁻¹.

B1: TgCBS (Toxoplasma gondii ME49) (protein)
chain: MNGKFADGPYSGILDSVLDAIGNTPMVRMKRLAKVYGLECDLLAKCEFMSAGGSVKDRIGKAMVEKAEREGRLKAGDTLIEPTSGNTGIGLALAAAVRGYRMIVTMPAKMSAEKSNIMKCLGAEIVRTPTEAAWNDENSHMGVAAKLQRELENAHILDQYNNTANPMVHYDVTAEEIITQCDGDIDMVVIGAGTGGTITGIGRKIKERCPKCKVVGVDPKGSILAVPDSLNDEKRLQSYEVEGIGYDFVPGVLDRKVVDEWVKVGDAESFTTARAIIRNEGLFVGGSSGANVWGALQAARQLKKGQKCVVLLPDSSRNYMSKFISDEWMAEHGFAPEDGAKVKEREKQFGGARIRDLLSETGATSDVPFVTARLSVEDVIKMMHETKVKEVIVTEDSEADGKTKLVGVLSEDHIAHSLQSGRCAMQSPVKDIAFKKLAKALPSAYLRDVAKALDFSPYVCVMDEKPSTKKQAGMGEHERAKISLRKAGNSRECPHFLGVITRIDLLHWLATKQK
notes: mainly dimer with some tetramer; no heme, PLP at Lys56
The term kcat/Km denotes the turnover number divided by the Michaelis constant. For B1, the Km in the series “purified protein [7]” stood at 420 ± 40 µM; in the series “purified protein [8]” it was 1300 ± 200 µM; in “purified protein [9]” it was 230 ± 30 µM; in [10], 4700 ± 900 µM. Moreover, the kcat in the series “purified protein [7]” is 6.3 ± 0.4 s⁻¹; in “purified protein [8]”, 5.5 ± 0.1 s⁻¹; in the series “purified protein [9]”, 6.3 ± 0.4 s⁻¹; in series [10], 2.6 ± 0.3 s⁻¹. The kcat/Km is 15000 ± 2000 M⁻¹ s⁻¹ in “purified protein [7]”, 4200 ± 700 M⁻¹ s⁻¹ in “purified protein [8]”, 27000 ± 5000 M⁻¹ s⁻¹ in the series “purified protein [9]” and 600 ± 200 M⁻¹ s⁻¹ in series [10].

B2: Cystathionine β-synthase from Toxoplasma gondii (enzyme, Toxoplasma gondii (strain ME49), UniProt A0A125YSJ9 1-514, looked up)
chain: MNGKFADGPYSGILDSVLDAIGNTPMVRMKRLAKVYGLECDLLAKCEFMSAGGSVKDRIGKAMVEKAEREGRLKAGDTLIEPTSGNTGIGLALAAAVRGYRMIVTMPAKMSAEKSNIMKCLGAEIVRTPTEAAWNDENSHMGVAAKLQRELENAHILDQYNNTANPMVHYDVTAEEIITQCDGDIDMVVIGAGTGGTITGIGRKIKERCPKCKVVGVDPKGSILAVPDSLNDEKRLQSYEVEGIGYDFVPGVLDRKVVDEWVKVGDAESFTTARAIIRNEGLFVGGSSGANVWGALQAARQLKKGQKCVVLLPDSSRNYMSKFISDEWMAEHGFAPEDGAKVKEREKQFGGARIRDLLSETGATSDVPFVTARLSVEDVIKMMHETKVKEVIVTEDSEADGKTKLVGVLSEDHIAHSLQSGRCAMQSPVKDIAFKKLAKALPSAYLRDVAKALDFSPYVCVMDEKPSTKKQAGMGEHERAKISLRKAGNSRECPHFLGVITRIDLLHWLATKQK
modifications: PLP bound to active site Lys56 (internal aldimine)
notes: Cystathionine β-synthase, Toxoplasma gondii strain ME49, gene TGME49_259180 (ToxoDB), complete cDNA as a synthetic gene; 514 amino acids (55.8 kDa); Cloned into pET21a (NdeI/BamHI); Mainly a dimer in solution, with some higher-order oligomers (e.g. tetramer); also called TgCBS; T. gondii CBS; source: E. coli Rosetta (DE3), purified (Ni-sepharose)
Broadly, the stoichiometry N is the number of molecules, sites or subunits per partner or assembly. For the molecule B2, the “stoichiometry N” value in series [11] is 2 and 4.
